Results on one substance are retold here after article PMC11272584 (Nature Metabolism, 2024).

Residue numbers refer to the chain shown, from its start.

The target in one assay is T1, GIPR E461* (human) (UniProt P48546).
T1 sequence: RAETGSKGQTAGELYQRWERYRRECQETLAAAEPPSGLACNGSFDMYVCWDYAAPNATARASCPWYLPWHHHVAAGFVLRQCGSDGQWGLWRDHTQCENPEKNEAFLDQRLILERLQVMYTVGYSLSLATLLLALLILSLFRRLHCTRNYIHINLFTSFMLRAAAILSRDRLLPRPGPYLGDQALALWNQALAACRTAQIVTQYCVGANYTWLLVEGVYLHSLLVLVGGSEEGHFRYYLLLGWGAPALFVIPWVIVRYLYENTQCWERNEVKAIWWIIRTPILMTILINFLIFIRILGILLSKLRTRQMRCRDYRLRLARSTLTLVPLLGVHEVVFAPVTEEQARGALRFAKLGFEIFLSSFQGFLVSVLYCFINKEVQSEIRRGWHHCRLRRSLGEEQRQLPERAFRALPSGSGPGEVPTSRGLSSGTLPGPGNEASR

A further assay deals with T2, GIPR E354Q (human) (UniProt P48546).
T2 sequence: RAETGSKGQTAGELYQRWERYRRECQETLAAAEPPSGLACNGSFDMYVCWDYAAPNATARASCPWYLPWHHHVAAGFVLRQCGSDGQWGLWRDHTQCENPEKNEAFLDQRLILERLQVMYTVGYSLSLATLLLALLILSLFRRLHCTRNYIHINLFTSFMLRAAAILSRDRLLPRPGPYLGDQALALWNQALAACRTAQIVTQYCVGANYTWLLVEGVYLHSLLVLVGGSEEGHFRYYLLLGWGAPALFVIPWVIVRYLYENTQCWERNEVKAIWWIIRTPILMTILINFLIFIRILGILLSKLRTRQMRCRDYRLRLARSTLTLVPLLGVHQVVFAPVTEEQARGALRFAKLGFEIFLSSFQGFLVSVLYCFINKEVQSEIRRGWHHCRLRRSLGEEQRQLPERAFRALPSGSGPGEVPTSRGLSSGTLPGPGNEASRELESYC

In another assay the target is T3, GIPR R43G (human) (UniProt P48546).
T3 sequence: T2 sequence with R22G, Q333E

For a further assay, the target named is T4, GIPR I221M (human) (UniProt P48546).
T4 sequence: T2 sequence with I200M, Q333E

For the next assay, the target named is T5, GIPR A207V (human) (UniProt P48546).
T5 sequence: T2 sequence with A186V, Q333E

The next assay has as its target T6, GIPR E288G (human) (UniProt P48546).
T6 sequence: T2 sequence with E267G, Q333E

As for “β-arrestin 2 (Rluc8-Arrestin-3-Sp1) (from UniProt P32121 1-409) (natural protein)”, the β-arrestin 2 recruitment (BRET) on stimulation with GIP(1-42): logEC50 (Arrestin) (log M (inferred)) in the assay with GIPR E461* (human) was -9.17; with GIPR E354Q (human) it was -8.52; in the assay with GIPR R43G (human) it was -9.1; with GIPR I221M (human) it was -9.38; with GIPR A207V (human), -9.42; with GIPR E288G (human), -9.15.
